Measured values taken from patent US20180086841A1 (Merck Sharp & Dohme, published 2018).

Columns and labels:
Experiment in all cases: flow cytometry on CHO-K1 transfectants;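 also: Anti-hCD27 antibodies tested on transiently transfected CHO-K1 cells bearing hCD27 alanine mutants, 30 min at 4 °C primary incubation, FITC readout excluding debris, dead cells and doublets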
F28A = target: T1, F28A
T1 construct: also called hCD27 F28A
T1 receptor chain: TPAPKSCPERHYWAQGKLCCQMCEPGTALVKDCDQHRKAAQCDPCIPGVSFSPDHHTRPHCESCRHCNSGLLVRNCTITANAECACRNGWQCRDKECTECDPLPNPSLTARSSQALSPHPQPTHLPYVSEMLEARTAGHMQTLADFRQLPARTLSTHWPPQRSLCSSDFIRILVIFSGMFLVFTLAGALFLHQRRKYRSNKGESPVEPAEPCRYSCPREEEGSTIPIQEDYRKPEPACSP
Experimental: (§1) The hCD27 variants that were tested are listed. Amino acids correspond to the UniProt P26842-1 sequence. Amino acids 1-20 constitute the signal peptide. Binding is expressed as the geometric mean of the FITC signal, relative to antibody binding to hCD27, which was set at 100%.
(§2) The ability of several anti-hCD27 antibodies to bind to a series of hCD27 alanine mutants was determined using CHO-K1 cells, transiently transfected pCI-neo empty vector, pCI-neo.hCD27 and several pCI-neo.CD27Ala mutant constructs.
(§3) Detached cells were transferred to 96 wells round-bottomed well plates at approximately 1.2×10⁵ cells/well. After spinning down the cells, discarding the supernatants and re-suspending the cells in the residual volume, the primary antibodies were added and incubated for 30 minutes at 4° C. Cells were washed three times with DPBS/BSA 1%, followed by centrifugation, discarding of the supernatants and re-suspension in the residual volume. […] After washing once, antibody binding was detected using the HTS plate reader (FACS Canto II) and FlowJo software for data analysis. Debris, dead cells and doublets were excluded from the analysis. Binding was expressed as the geometric mean of the FITC signal, relative to antibody binding to hCD27, which was set at 100%.

R37A = target: T2, R37A
T2 construct: also called hCD27 R37A
T2 receptor chain: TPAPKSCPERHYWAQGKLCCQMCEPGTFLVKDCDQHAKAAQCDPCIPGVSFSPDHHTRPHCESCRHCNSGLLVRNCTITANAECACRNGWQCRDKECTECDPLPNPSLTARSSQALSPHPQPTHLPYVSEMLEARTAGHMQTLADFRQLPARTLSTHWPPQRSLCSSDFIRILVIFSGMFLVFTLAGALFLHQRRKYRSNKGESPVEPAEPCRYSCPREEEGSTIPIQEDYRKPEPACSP
Experimental: as §1, §2, §3

I46A = target: T3, I46A
T3 construct: also called hCD27 I46A
T3 receptor chain: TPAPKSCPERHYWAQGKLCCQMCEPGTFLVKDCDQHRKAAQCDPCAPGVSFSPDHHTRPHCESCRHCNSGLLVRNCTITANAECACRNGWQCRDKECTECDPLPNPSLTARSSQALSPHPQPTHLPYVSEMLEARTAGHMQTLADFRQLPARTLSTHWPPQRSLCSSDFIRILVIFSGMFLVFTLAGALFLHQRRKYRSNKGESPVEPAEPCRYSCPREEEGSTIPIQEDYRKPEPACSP
Experimental: as §1, §2, §3

V49A = target: T4, V49A
T4 construct: also called hCD27 V49A
T4 receptor chain: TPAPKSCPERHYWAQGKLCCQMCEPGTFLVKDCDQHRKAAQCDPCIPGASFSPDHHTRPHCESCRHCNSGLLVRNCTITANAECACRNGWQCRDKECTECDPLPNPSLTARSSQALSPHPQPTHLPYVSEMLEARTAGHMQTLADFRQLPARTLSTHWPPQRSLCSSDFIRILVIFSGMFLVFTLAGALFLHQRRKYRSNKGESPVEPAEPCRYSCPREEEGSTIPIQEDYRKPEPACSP
Experimental: as §1, §2, §3

R87A = target: T5, R87A
T5 construct: also called hCD27 R87A
T5 receptor chain: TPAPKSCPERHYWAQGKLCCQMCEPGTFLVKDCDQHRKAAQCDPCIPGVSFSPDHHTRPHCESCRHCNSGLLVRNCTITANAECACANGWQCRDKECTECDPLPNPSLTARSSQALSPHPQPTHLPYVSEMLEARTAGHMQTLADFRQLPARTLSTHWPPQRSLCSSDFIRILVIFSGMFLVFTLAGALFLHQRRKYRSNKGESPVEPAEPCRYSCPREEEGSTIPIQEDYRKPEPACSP
Experimental: as §1, §2, §3

N88A = target: T6, N88A
T6 construct: also called hCD27 N88A
T6 receptor chain: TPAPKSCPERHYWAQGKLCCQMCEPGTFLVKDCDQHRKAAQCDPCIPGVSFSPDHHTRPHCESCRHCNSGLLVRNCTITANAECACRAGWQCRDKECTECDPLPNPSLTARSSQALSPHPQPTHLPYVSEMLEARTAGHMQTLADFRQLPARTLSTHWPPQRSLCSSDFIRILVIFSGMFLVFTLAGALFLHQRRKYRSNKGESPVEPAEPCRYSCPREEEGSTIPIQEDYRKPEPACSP
Experimental: as §1, §2, §3

W90A = target: T7, W90A
T7 construct: also called hCD27 W90A
T7 receptor chain: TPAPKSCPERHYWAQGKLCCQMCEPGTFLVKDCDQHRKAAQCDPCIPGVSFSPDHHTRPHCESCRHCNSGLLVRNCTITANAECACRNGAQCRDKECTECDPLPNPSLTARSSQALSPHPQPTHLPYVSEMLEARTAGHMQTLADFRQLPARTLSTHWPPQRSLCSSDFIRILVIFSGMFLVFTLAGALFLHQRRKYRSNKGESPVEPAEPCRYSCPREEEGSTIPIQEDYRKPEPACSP
Experimental: as §1, §2, §3

R93A = target: T8, R93A
T8 construct: also called hCD27 R93A
T8 receptor chain: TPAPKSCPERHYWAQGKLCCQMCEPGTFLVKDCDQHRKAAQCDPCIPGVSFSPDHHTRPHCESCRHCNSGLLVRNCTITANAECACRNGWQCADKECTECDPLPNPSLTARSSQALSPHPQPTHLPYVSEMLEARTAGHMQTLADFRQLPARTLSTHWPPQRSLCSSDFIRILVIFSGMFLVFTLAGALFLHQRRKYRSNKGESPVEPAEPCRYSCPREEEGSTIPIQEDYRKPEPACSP
Experimental: as §1, §2, §3

R10A = target: T9, R10A
T9 construct: also called hCD27 R10A
T9 receptor chain: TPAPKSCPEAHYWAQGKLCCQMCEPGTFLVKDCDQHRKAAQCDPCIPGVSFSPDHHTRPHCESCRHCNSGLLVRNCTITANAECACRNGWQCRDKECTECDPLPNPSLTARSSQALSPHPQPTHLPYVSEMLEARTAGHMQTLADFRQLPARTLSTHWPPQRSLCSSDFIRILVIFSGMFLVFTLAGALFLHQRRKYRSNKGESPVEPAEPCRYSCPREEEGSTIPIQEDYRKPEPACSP
Experimental: as §1, §2, §3

W13A = target: T10, W13A
T10 construct: also called hCD27 W13A
T10 receptor chain: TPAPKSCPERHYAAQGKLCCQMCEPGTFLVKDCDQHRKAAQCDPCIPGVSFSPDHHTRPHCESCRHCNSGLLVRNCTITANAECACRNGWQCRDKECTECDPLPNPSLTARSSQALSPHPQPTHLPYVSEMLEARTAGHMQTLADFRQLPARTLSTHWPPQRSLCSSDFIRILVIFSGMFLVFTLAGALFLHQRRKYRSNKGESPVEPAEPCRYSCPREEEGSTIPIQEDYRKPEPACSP
Experimental: as §1, §2, §3

B1: hCD27.15-6B (antibody, human IgG4 S228P, kappa, V domains shown)
VH: QVQLVQSGAEVKKPGASVKVSCKASGFIIKATYMHWVRQAPGQRLEWMGRIDPANGETKYDPKFQVRVTITADTSASTAYMELSSLRSEDTAVYYCARYAWYFDVWGQGTLVTVSS
VL: DIQMTQSPSSLSASVGDRVTITCRASENIYSFLAWYQQKPGKAPKLLIYHAKTLAEGVTSRFSGSGSGTDFTLTISSLQPEDSATYYCQHYYGSPLTFGQGTRLEIKR
notes: also called hCD27.15 (humanized 6B); humanized hCD27.15 (human IgG4, Clone 6B)
Q: B1 was tested. Which “binding, WT hCD27 = 100 (GM FITC)” value (F28A) did it give?
A: 59.4%

Q: And the “binding, WT hCD27 = 100 (GM FITC)” value (R37A)?
A: 106%

Q: What about the “binding, WT hCD27 = 100 (GM FITC)” value (I46A) of the same binder?
A: 81.9%

Q: What about the “binding, WT hCD27 = 100 (GM FITC)” value (V49A) of the same binder?
A: 69%

Q: And the “binding, WT hCD27 = 100 (GM FITC)” value (R87A)?
A: 114%

Q: What about the “binding, WT hCD27 = 100 (GM FITC)” value (N88A) of the same binder?
A: 132%

Q: What about the “binding, WT hCD27 = 100 (GM FITC)” value (W90A) of the same binder?
A: 93.8%

Q: What about the “binding, WT hCD27 = 100 (GM FITC)” value (R93A) of the same binder?
A: 131%

Q: What about the “binding, WT hCD27 = 100 (GM FITC)” value (R10A) of the same binder?
A: 58.9%

Q: And the “binding, WT hCD27 = 100 (GM FITC)” value (W13A)?
A: 71.4%
